Test system: live HeLa cells
Conditions: 8 µM Flu-HBS 3, HeLa cells, 2.5 hours, fixed, Z-section fluorescence microscopy

SMILES: CC[C@H](C)[C@H](NC(=O)CN1C/C=C/CCC(=O)N[C@@H](Cc2ccccc2)C(=O)N[C@@H](CCC(=O)O)C1=O)C(=O)N[C@@H](Cc1ccc(O)cc1)C(=O)N[C@@H](CCCNC(=N)N)C(=O)N[C@@H](CC(C)C)C(=O)N[C@@H](CCC(=O)O)C(=O)N[C@@H](CC(C)C)C(=O)N[C@@H](CC(C)C)C(=O)N[C@@H](CCCCN)C(=O)N[C@@H](C)C(=O)N[C@@H](CCC(=O)O)C(=O)N[C@@H](CCC(=O)O)C(=O)N[C@@H](C)C(=O)N[C@@H](CC(N)=O)C(=O)N[C@@H](CCCCNC(=O)c1ccc2c(c1)C(=O)OC21c2ccc(O)cc2Oc2cc(O)ccc21)C(N)=O [Flu-HBS 3]
- Cellular uptake at 4 °C as compared to 37 °C: significantly reduced

From paper PMC3312813 (Nature chemical biology, 2011)
